The values below come from article PMC9942873 (Immunity, 2023).

Assay in all cases: ELISA
Common to all, as to conditions: both partners purified

Assay [1] addresses T1, recombinant full-length Pfs48/45 (Plasmodium falciparum 3D7, UniProt Q8I6T1).
For assay [2], the target named is T2, Pfs48/45 D1-2 (Plasmodium falciparum 3D7, UniProt Q8I6T1).
Another assay concerns the target Pfs48/45 D2-3 (Plasmodium falciparum 3D7, UniProt Q8I6T1).
The target in assay [3] is T1, recombinant full-length Pfs48/45. The source holds these as a separate data set.
For assay [4], the target named is T2, Pfs48/45 D1-2. This is another data set of the same source.

T1 sequence (Q8I6T1 28-428): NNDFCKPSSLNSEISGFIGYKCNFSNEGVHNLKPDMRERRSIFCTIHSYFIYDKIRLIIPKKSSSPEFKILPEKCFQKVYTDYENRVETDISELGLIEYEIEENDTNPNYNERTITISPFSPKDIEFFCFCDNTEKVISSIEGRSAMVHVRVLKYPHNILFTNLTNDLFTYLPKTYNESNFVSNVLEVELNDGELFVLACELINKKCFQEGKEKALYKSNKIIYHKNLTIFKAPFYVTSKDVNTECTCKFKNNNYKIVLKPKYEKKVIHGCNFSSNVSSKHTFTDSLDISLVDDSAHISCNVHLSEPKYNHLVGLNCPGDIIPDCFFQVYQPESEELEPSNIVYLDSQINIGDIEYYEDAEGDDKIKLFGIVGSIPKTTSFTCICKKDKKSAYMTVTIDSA
T2 sequence (Q8I6T1 28-289): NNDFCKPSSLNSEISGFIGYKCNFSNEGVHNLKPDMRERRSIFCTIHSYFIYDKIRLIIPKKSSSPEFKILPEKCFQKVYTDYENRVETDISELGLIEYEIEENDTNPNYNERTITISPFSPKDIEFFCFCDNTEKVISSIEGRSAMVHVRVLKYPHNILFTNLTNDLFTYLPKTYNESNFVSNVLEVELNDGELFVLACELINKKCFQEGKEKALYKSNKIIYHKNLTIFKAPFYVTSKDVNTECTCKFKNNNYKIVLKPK
Pfs48/45 D2-3, sequence (Q8I6T1 184-428): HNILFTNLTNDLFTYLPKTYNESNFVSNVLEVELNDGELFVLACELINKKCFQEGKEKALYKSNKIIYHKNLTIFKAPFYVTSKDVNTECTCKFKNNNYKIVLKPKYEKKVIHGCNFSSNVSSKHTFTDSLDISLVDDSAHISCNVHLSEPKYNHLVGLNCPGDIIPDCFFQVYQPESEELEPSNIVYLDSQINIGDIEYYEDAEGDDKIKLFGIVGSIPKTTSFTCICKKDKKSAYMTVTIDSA

B1: RUPA-88 (antibody, V domains shown)
VH: QVHLVQSGAEVKKPGASVKVSCKASGYNFLYHDITWVRQATGQGLEWLGWMNPNTGDTGYAQNFQGRVTMTRDMSRSTAYLELGSLRSEDTAVYYCARGVGSYHGSGGWLDPWGPGTLVIVSS
VL: QSVLTQPPSVSETPGQRVTISCSGSSSNIGLNTVNWYQQLPGTAPKLLIHNDNQRPSGVPDRFSGSKSGTSASLAISGLHSEDEADYYCATWDDSLKRRVFGGGTKLTVL
notes: human IgG1; source: recombinant human IgG1, 293T (Protein A purified) or GenScript
On to B1, for which the binding result (in assay [1]; in the assay with Pfs48/45 D1-2 [2]; in the assay with Pfs48/45 D2-3) was “binds” each time.

B2: RUPA-113 (antibody, V domains shown)
VH: QVQLVQSGAELKKPGASVKVSCKASGYTFTSHDITWVRQAPGQGLEWMGWMNPNTGDRGYARNFQGRLTLTRDMSISTAFMVLSSLRPEDTAVYYCTRGVGTYHGAGGWFDPWGQGTLVSVSS
VL: QSVLTQPPSASETPGQRVTISCSGSSSNIGSNIVSWYQQLPGTAPKLLIYNNNQRPSGVPDRFSGSQSGTSASLAISGLQSEDEADYYCATWDDSLERGVFGGGTKLTVL
notes: as for B1
As for B2, the binding result (in assay [1]; with Pfs48/45 D1-2 [2]; with Pfs48/45 D2-3) was “binds” each time.

B3: RUPA-99 (antibody, V domains shown)
VH: QVHLVQSGAEVKKPGASVKVSCKASGYNFLYHDITWVRQATGQGLEWLGWMNPNTGDTGYAQNFQGRVTMTRDMSRSTAYMELDSLRSEDTAVYYCARGVGSYHGSGGWLDPWGPGTLVIVSS
VL: QSVLTQPPSVSETPGQRVTISCSGSSSNIGLNTVNWYQQLPGTAPNLLIHNDNQRPSGVPDRFSGSKSGTSASLAISGLHSEDEADYYCATWDDSLKRRVFGGGTKLTVL
notes: as for B1
Take B3: the binding result (in assay [1]; with Pfs48/45 D1-2 [2]; in the assay with Pfs48/45 D2-3) was “binds” in each case.

B4: RUPA-108 (antibody, V domains shown)
VH: EVVLVESGGGLIQPGGSLRLSCAASGFTVSSSYMSWVRQAPGKGLEWVSVIYSGAGGGSIYYADSVKGRFTISRDNLKNTLYLQMNSLRVEDAAVYYCVRDSRGWGYFDDWGQGTLVTVSS
VL: EIILTQSPGTLSLSPGERATLSCRASQSIRTNYLAWYQRKPGQTPRLLIYGASSRATGIPDRFSGSGSGTDFTLTISRLEPEDFAEYFCQQYQNSPWTFGQGTIVEIK
notes: as for B1
Take B4: the binding result (in assay [1]; with Pfs48/45 D1-2 [2]; with Pfs48/45 D2-3) was “binds” in each case.

B5: RUPA-36 (antibody, V domains shown)
VH: QVQLQQWGAGLLKPSETLSLTCAVEGDSLGDYYWSWIRQPPGKGLEWIGDINHSGTTNYIPSLKSRVTISVDPSRKHFSLKLNFVTAADTATYFCARRASGWYRQSRYTGWFDPWGQGTLVTVSS
VL: EIVMTQSPATLSVSPGERATLSCRASHSINSNVAWYQQKPGQAPRLLIYGASTRATGIPARFSGSGSGTEFTLTISSLQTEDFAVYYCQQYNNWPGLSFGGGTKVEIK
notes: as for B1
Take B5: the binding result (in assay [3]; with Pfs48/45 D1-2 [4]) was “binds” throughout.

B6: RUPA-91 (antibody, V domains shown)
VH: QVQLVQSGAEVKKIGASVKVSCKASGYTFTSHDIIWVRQAAGQGLEWMGWMNPNTGKKGYVEKFQGRVTLTRNMSTGTAYMELSSLRSDDTAVYYCARGVGTYHGSEGWLDPWGQGTLITVSS
VL: QSVLTQPPSASETPGQRVTISCSGSSSNVGSNSVNWYQQVPGTAPKLLIYNTNQRPSGVPARFSGSKSGTSASLAISGLHSEDEADYYCATWDGSLKKGVFGGGTKVTVL
notes: as for B1
As to B6, the binding result (in assay [1]; in the assay with Pfs48/45 D1-2 [2]; with Pfs48/45 D2-3) was “binds” throughout.

B7: RUPA-105 (antibody, V domains shown)
VH: QVQLVQSGAEVKKPGASVKVSCTASGYNFLTHDISWVRQATGQGLEWMGWMNPNTGKKGYVQKFQGRVTMDRDMSKSTGYMELRSLTSEDTAVYYCVRGVGSYYGSGGWLDPWGQGTLVIVSS
VL: QSVLTQPPSASETPGQKVTISCSGSSSNIGSDTVSWYVQVPGTAPKLLIYNDNQRPSGVPDRFSGSKSGTSASLAISGLQSEDEADYYCATWDASLKRRVFGGGTTLTVL
notes: as for B1
With B7, the binding result (in assay [1]; in the assay with Pfs48/45 D1-2 [2]; in the assay with Pfs48/45 D2-3) was “binds” in each case.

B8: RUPA-90 (antibody, V domains shown)
VH: EVQLVESGGGLVQPGGSLRLSCAASGFMFSSYWMTWVRQAPGKGLEWVANIKEDGSEKYYVDSVKGRFTISRDNAENSLYLHMNSLRAADTAVYYCAREGDVFVAPSAVRKGGVYGMDVWGQGTTVTVSS
VL: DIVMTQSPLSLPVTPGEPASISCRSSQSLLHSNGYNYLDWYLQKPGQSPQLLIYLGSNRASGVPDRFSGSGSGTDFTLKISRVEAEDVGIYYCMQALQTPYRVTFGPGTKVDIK
notes: as for B1
Regarding B8, the binding result (in assay [1]; with Pfs48/45 D1-2 [2]; in the assay with Pfs48/45 D2-3) was “binds” in each case.

B9: RUPA-104 (antibody, V domains shown)
VH: QVQLVQSGAEVKKPGASVKISCKTSGYTFTNYDINWVRQATGRGLEWMGWINPNTGKTGFAQKFQGRVTMTRSTSISTAYMELSSLRSEDTAVYYCARGVTTPDYFDSWGQGTLVTVSS
VL: DIQMTQSPSSVSASVGDRVSITCRASQDISGWLAWYQQKPGKAPKLLIYAASTLRTGVPSRFSGSGSGTDFTLTISSLQPEDFATYYCLQANSLPVTFGQGTRLEIT
notes: as for B1
As to B9, the binding result (in assay [1]; in the assay with Pfs48/45 D1-2 [2]; with Pfs48/45 D2-3) was “binds” throughout.

B10: RUPA-87 (antibody, V domains shown)
VH: QVQVVQSGAEVRKPGASVKVSCKTSGYTFIYYYIHWVRQAPGQGLEWLGWINPNSGGTKYAQQFQGRVTVTRDTSVSTAYMELNGLTSDDTAVYYCARVVAAEGYFDYWGQGTLLTVSS
VL: DIQMTQSPSSVSASVGDRVTITCRASQGISGWLAWYQQKPGKAPKLLIYAASTLQSGVPSRFSGSGSGTDFTLTISSLQPDDFATYFCQQANSFPLTFGGGTKISLK
notes: as for B1
In the case of B10, the binding result (in assay [1]; with Pfs48/45 D1-2 [2]; in the assay with Pfs48/45 D2-3) was “binds” each time.

B11: RUPA-26 (antibody, V domains shown)
VH: QVQLQQWGAGLLKPSETLSLTCLVNGGSFSDYYWSWIRQPPGRGLEWIGDVNHSGTTNHRPSLQSRVTLSLDMSKNQFSLKLTSVTAADTAVYFCARRSSGYYRGSRYTGWFDPWGQGTLVTVSS
VL: EIVLTQSPATLSVSPGERATLSCRASQTITRNLAWYQQKPGQAPRLLIYGASTRAPDIPARFSGSGSGTEFTLTISSLQSEDFALYYCQQYNNWPGLTFGGGTKVEIK
notes: as for B1
With B11, the binding result (in assay [3]; in the assay with Pfs48/45 D1-2 [4]) was “binds” in each case.

B12: RUPA-45 (antibody, V domains shown)
VH: QVQLQQWGAGLLKPSETLSLTCLVNGGSFSDYYWSWIRQPPGRGLEWIGDVNHSGTTNHRPSLQSRVTLSLDMSKNQFSLRLTSVTAADTAVYFCARRSSGYYRGSHYTGWFDPWGQGTLVTVSS
VL: EIVLTQSPATLSVSPGERATLSCRASQTITRNLAWYQQKPGQAPRLLIYGASTRAPDIPARFSGSGSGTEFTLTISSLQSEDFALYYCQQYNNWPGLTFGGGTKVEIK
notes: as for B1
In the case of B12, the binding result (in assay [3]; with Pfs48/45 D1-2 [4]) was “binds” in each case.

B13: RUPA-111 (antibody, V domains shown)
VH: EVQLVESGGGLVQPGGSLRLSCVVSGFTFSRYSMYWVRQAPGKGPEWVSYIDSTGTTIYYADSVKGRFTISRDNAKSSLSLQMSSLRDDDRGVYYCARDGRKDSGSFLDHWGQGTLVIVSS
VL: DIQMTQSPSTLSASVGDRVTITCRASQSISEWLAWYQQKPGKAPRLLIYQASSLQSGVPSRFSGSGSGTEFTLTISSLQSDDFATYYCQQFDTYWTFGQGTKVEVR
notes: as for B1
Regarding B13, the binding result (in assay [1]; in the assay with Pfs48/45 D1-2 [2]; in the assay with Pfs48/45 D2-3) was “binds” each time.

B14: RUPA-46 (antibody, V domains shown)
VH: QVQLVQSGGGLVKPGGSLKLSCAASGFAFSDYYMHWIRQSPGKGLEWISYVSNSGNTIYYADSVKGRFTISRDNTKNSLFLQMNSLSADDTAVYYCARDRKGRNSETYYGALDVWGQGTTVTVST
VL: DIVMTQSLDSLAVSLGERATINCKSSQSVFSTYNNKNYLAWYQQKLGQPPKLLIYWASTRESGVPDRFSGSGSGTDFTLTISSLQAEDVAVYYCQQYYTTPTWTFGQGTKVEIK
notes: as for B1
On to B14, for which the binding result (in assay [3]; with Pfs48/45 D1-2 [4]) was “binds” in each case.

B15: RUPA-30 (antibody, V domains shown)
VH: QVQLVQSGAEVKKPGASVKVSCKASGYTFTTYFLHWVRQAPGQGLEWMGVIHPSGGSTTYAENFEGRVTMSRDTSTSTVYMELSSVRYEDTAVYYCARAGEYCRGIRCYIDGLDIWGQGTTVTVSS
VL: DIQMTQSPSSLSASVGDRVTITCRASQGIRNDLGWYQQKPGKAPKRLIYAASSLQSGVPSRFSGSGSGTEFTLTISSLQPEDFATYYCLQHNDSPWTFGQGTKVEIK
notes: as for B1
For the molecule B15, the binding result (in assay [3]; in the assay with Pfs48/45 D1-2 [4]) was “binds” in each case.

B16: RUPA-37 (antibody, V domains shown)
VH: QEQLVQSGAELRTPGATVKVSCKAPAYTFTTYFMHWVRQAPGRGFEWLGRINPSRGSTTYADKFQGRVTMTSDTSTTTVFMEVTNLRSEDTAVYYCARAGEYCRGIRCYVDGIDMWGQGTMITVSS
VL: DIQMTQSPSSLSASIGDRVTITCRASQGIRNDLGWYQQKPGKAPQRLIYAASSLQSGVPSRFSGSGSGTEFTLTISSLQPEDFASYFCLQHNSSPWTFGQGTKVEIK
notes: as for B1
On to B16, for which the binding result (in assay [3]; with Pfs48/45 D1-2 [4]) was “binds” in each case.

B17: RUPA-92 (antibody, V domains shown)
VH: QVQLVQSGAEVKKPGASVKVSCKASGYTFTSHDIIWVRQATGQGLEWMGWMNPNTGDKGYAQKFQGRVTMTRSMSISTAYMELRSLRSEDTAVYYCARGVGTYRGSGGWFDPWGPGTLITVSS
VL: QSALTQPRSVSGSPGQSVTISCTGTSGDVGGFNYVSWYQQHPGKTPRLMLYHVTKRPSGVPDRFSGSKSGNTASLTISGLQADDEADYYCCSYAGNYIEIFGGGTKLTVL
notes: as for B1
As to B17, the binding result (in assay [1]; with Pfs48/45 D1-2 [2]; with Pfs48/45 D2-3) was “binds” throughout.
